IntAct's records for PubMed 20477991

B1: Phospholipid-transporting ATPase NEO1 (Saccharomyces cerevisiae), P40527 (parent)
chain: MPNPPSFKSHKQNLFNSNNNQHANSVDSFDLHLDDSFDAALDSLQINNNPEPLSKHNTVGDRESFEMRTVDDLDNFSNHSSDSHRKSSNTDTHPLMYDNRLSQDDNFKFTNIASSPPSSSNNIFSKALSYLKVSNTKNWSKFGSPIELSDQHIEREIHPDTTPVYDRNRYVSNELSNAKYNAVTFVPTLLYEQFKFFYNLYFLVVALSQAVPALRIGYLSSYIVPLAFVLTVTMAKEAIDDIQRRRRDRESNNELYHVITRNRSIPSKDLKVGDLIKVHKGDRIPADLVLLQSSEPSGESFIKTDQLDGETDWKLRVACPLTQNLSENDLINRISITASAPEKSIHKFLGKVTYKDSTSNPLSVDNTLWANTVLASSGFCIACVVYTGRDTRQAMNTTTAKVKTGLLELEINSISKILCACVFALSILLVAFAGFHNDDWYIDILRYLILFSTIIPVSLRVNLDLAKSVYAHQIEHDKTIPETIVRTSTIPEDLGRIEYLLSDKTGTLTQNDMQLKKIHLGTVSYTSETLDIVSDYVQSLVSSKNDSLNNSKVALSTTRKDMSFRVRDMILTLAICHNVTPTFEDDELTYQAASPDEIAIVKFTESVGLSLFKRDRHSISLLHEHSGKTLNYEILQVFPFNSDSKRMGIIVRDEQLDEYWFMQKGADTVMSKIVESNDWLEEETGNMAREGLRTLVIGRKKLNKKIYEQFQKEYNDASLSMLNRDQQMSQVITKYLEHDLELLGLTGVEDKLQKDVKSSIELLRNAGIKIWMLTGDKVETARCVSISAKLISRGQYVHTITKVTRPEGAFNQLEYLKINRNACLLIDGESLGMFLKHYEQEFFDVVVHLPTVIACRCTPQQKADVALVIRKMTGKRVCCIGDGGNDVSMIQCADVGVGIVGKEGKQASLAADFSITQFCHLTELLLWHGRNSYKRSAKLAQFVMHRGLIIAICQAVYSICSLFEPIALYQGWLMVGYATCYTMAPVFSLTLDHDIEESLTKIYPELYKELTEGKSLSYKTFFVWVLLSLFQGSVIQLFSQAFTSLLDTDFTRMVAISFTALVVNELIMVALEIYTWNKTMLVTEIATLLFYIVSVPFLGDYFDLGYMTTVNYYAGLLVILLISIFPVWTAKAIYRRLHPPSYAKVQEFATP

Variants of: B1
Conditions: with dop1_yeast DOP1, Q03921
dop1_yeast DOP1, Q03921, sequence (Q03921 whole entry): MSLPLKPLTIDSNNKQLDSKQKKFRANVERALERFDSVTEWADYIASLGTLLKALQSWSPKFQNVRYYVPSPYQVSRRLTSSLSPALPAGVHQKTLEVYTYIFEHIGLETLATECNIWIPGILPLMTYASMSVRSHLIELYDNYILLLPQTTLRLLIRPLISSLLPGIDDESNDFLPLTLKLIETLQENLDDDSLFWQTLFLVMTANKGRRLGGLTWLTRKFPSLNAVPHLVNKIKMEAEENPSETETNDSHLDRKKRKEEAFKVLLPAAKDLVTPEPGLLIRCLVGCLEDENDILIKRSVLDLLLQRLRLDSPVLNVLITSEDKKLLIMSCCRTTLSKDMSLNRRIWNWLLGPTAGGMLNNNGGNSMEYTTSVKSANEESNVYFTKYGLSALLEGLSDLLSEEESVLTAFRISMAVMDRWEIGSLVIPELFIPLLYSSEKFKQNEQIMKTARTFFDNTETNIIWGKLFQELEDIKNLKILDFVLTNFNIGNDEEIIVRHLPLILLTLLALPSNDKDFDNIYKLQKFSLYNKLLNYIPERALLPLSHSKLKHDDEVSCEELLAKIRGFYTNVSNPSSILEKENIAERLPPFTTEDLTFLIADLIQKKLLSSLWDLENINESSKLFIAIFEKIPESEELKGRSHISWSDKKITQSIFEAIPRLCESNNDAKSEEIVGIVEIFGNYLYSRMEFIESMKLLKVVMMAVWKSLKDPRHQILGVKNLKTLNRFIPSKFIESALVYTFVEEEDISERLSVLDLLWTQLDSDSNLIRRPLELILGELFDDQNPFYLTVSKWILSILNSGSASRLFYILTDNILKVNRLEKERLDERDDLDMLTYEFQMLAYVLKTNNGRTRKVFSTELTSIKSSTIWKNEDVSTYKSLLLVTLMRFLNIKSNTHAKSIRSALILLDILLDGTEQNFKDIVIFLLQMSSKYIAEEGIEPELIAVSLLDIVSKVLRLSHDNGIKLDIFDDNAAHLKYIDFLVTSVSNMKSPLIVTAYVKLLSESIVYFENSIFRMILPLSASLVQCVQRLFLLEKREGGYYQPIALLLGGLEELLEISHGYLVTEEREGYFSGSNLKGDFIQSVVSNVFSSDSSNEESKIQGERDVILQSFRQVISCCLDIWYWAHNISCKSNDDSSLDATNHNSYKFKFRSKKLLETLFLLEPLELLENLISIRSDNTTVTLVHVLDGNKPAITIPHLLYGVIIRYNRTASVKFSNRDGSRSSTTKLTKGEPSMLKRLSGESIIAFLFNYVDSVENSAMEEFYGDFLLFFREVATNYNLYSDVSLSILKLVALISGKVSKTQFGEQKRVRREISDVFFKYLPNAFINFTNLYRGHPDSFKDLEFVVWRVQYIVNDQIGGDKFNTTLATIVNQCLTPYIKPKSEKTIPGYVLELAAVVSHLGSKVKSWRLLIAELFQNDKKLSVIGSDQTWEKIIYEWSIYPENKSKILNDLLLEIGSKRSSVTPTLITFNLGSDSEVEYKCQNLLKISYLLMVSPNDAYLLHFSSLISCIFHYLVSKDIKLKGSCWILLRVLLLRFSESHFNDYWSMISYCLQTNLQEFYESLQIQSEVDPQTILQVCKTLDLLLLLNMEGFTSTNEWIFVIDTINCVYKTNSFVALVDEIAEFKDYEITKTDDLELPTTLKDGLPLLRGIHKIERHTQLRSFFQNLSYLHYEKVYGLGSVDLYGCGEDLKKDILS

| effect of a mutation on the interaction | Variant |
| --- | --- |
| decreasing interaction strength | F301S;D305G;V373A;S539P;L540P;N631S;Q655R;V748A |
| with no effect | I284T;I449M;E605G;L680P;Y714H |
